From patent US20140289906A1, “Compositions Having Dicamba Decarboxylase Activity and Methods of Use” (priority 2013, published 2014)

How the values were obtained:
[1] = 14C assay: 14CO2 capture from [14C]-carboxyl-labeled dicamba with purified protein; assay type: biochemical
[2] = LC-MS/MS detection of 4-chloro-3-methoxy phenol; assay type: biochemical; details: purified protein, dicamba
Description: The decarboxylated and chloro hydrolyzed product, 4-chloro-3-methoxy phenol (FIG. 1D), is measured using a LC-MS/MS analytical procedure. […] 10 ul is removed from the reaction mixture and mixed with 90 ul pre-chilled methanol followed by centrifugation at 14,000 rpm for 15 min at 4° C. 10 ul of the supernatant is then transferred into 170 ul ddH2O to achieve 5% methanol solution for injection. 50 ul of the prepared sample is injected into a 4000 Q Trap LC-MS/MS system for sample analysis. LC-MS/MS parameters are: Mobile Phase A, 2 mM ammonium acetate in water; Mobile Phase B, 2 mM ammonium acetate in methanol; Column, Aquasil, 100×2.1 mm, 3 μm, C18 column; Flow Rate, 0.6 ml/min. The MS/MS fragment 157/142 which is common to 4-chloro-3-methoxy phenol, 2-chloro-5-methoxy phenol, and 3-chloro-5-methoxy phenol is monitored at a retention time of 2.88 min.

[3] = 14C assay: 14CO2 capture from [14C]-carboxyl-labeled dicamba with IPTG-induced recombinant E. coli cells; details: dicamba decarboxylation activity
[4] = GC/MS detection of 2,5-dichloro phenol (2,5-DCP); kinetic determination; assay type: biochemical; details: purified protein, dicamba
Description: The decarboxylated and demethylated product of dicamba, 2,5-dichloro phenol or 2,5-DCP (FIG. 1E) is measured using a GC/MS analytical procedure with either liquid injection after liquid/liquid extraction using toluene as the extraction solvent or gas injection using head space method. The head space sample analysis is carried out on an Agilent GC/MS system with a 6890A GC, a 5973N MSD and a CTC CombiPAL auto-sampler or with a 7890A GC, a 5975C MSD and an Agilent GC Sampler 80 auto-sampler with Phenomenex ZB-MultiResidue-1 column (30 m length, 0.25 mm diameter, 0.25 um film) or equivalent. GC/MS parameters are: GC inlet temperature, 200° C.; Carry gas, helium in constant flow mode (1.2 mL/min); Oven temperature program, 70° C. for 1 min and then ramp to 275° C. at 40° C./min. […] The reaction vial is transferred to a agitator for incubation at 90° C. for 4 min at 500 rpm. With a syringe preheated at 110° C., 1000 uL of head space is injected with sample fill speed at 100 uL/sec. A 2-mm diameter liner is used in sample inlet. The MS data acquisition is done in SIM (selected ion monitoring) mode. The positive ion at M/Z 162 for the molecular ion of 2,-5-DCP is monitored at retention time of 4.06 min. Solvent delay for MS acquisition is set at 3 min. GC/MS parameters for liquid sample analysis are the same as those for head space analysis, except that the volume of liquid injection is 1 uL.

[5] = Dicamba decarboxylation activity of computationally designed protein variants and parents (Tables 4, 5); details: native proteins and designed variants; assay not specified
[6] = Saturation mutagenesis of SEQ ID NO:109: dicamba decarboxylation activity of point mutants (Table 7)
[7] = dicamba decarboxylation activity of point mutants of SEQ ID NO: 109 from NNK saturation mutagenesis, 0.7-fold used as cut-off
[8] = point mutant of SEQ ID NO:109, dicamba decarboxylation activity relative to the unchanged template

Row | Molecule | CO2 product detected [1] | 4-chloro-3-methoxy phenol product detected [2] | Enzymatic Detection level [3] | 2,5-DCP product detected [4] | dicamba decarboxylase activity (statement in the description) [5] | Average Activity (Fold of SEQ ID NO: 109) [6, 7] | Average Activity (Fold of SEQ ID NO: 109) [6, 8]
1 | 110 (protein, Dicamba decarboxylase variant clone DC.4.111) MAQGKVALEEHFAIPETLQDSMGFVPGDYWKELMHRLLDIQDTRLKLMDAHGIETMILSLNAPAVQAIPDRRKAIEIARRANDVLAEECAKRPDRFLAFAALPLQDPDAATEELQRCVNDLGFVGALVNGFSQEGDGQTPLYYDLPQYRPFWGEVEKLDVPFYLHPRNPLPQDSRIYDGHPWLLGPTWAFAQETAVHALRLMASGLFDEHPRLNIILGHMGEGLPYMMWRIDHRMAWVKLPPRYPAKRRFMDYFNENFHITTSGNFRTQTLIDAILEIGADRILFSTDWPFENIDHASDWFNATSIAEADRVKIGRTNARRLFKLDGA | detected | detected | High | detected | displays an increase in dicamba decarboxylase activity | – | –
2 | G327Q: point mutation of SEQ ID NO:109 (protein, Dicamba decarboxylase variant clone DC.4.032) MAQGKVALEEHFAIPETLQDSAGFVPGDYWKELQHRLLDIQDTRLKLMDAHGIETMILSLNAPAVQAIPDRRKAIEIARRANDVLAEECAKRPDRFLAFAALPLQDPDAATEELQRCVNDLGFVGALVNGFSQEGDGQTPLYYDLPQYRPFWGEVEKLDVPFYLHPRNPLPQDSRIYDGHPWLLGPTWAFAQETAVHALRLMASGLFDEHPRLNIILGHMGEGLPYMMWRIDHRVAWVKLPPRYPAKRRFMDYFNENFHITTSGNFRTQTLIDAILEIGADRILFSTDWPFENIDHASDWFNATSIAEADRVKIGRTNARRLFKLDQA | – | – | – | – | – | 2.8 Fold of SEQ ID NO: 109 | 2.8 Fold of SEQ ID NO: 109
3 | A328D: point mutation of SEQ ID NO:109 (protein, Dicamba decarboxylase variant clone DC.4.032) MAQGKVALEEHFAIPETLQDSAGFVPGDYWKELQHRLLDIQDTRLKLMDAHGIETMILSLNAPAVQAIPDRRKAIEIARRANDVLAEECAKRPDRFLAFAALPLQDPDAATEELQRCVNDLGFVGALVNGFSQEGDGQTPLYYDLPQYRPFWGEVEKLDVPFYLHPRNPLPQDSRIYDGHPWLLGPTWAFAQETAVHALRLMASGLFDEHPRLNIILGHMGEGLPYMMWRIDHRVAWVKLPPRYPAKRRFMDYFNENFHITTSGNFRTQTLIDAILEIGADRILFSTDWPFENIDHASDWFNATSIAEADRVKIGRTNARRLFKLDGD | – | – | – | – | – | 2.3 Fold of SEQ ID NO: 109 | 2.3 Fold of SEQ ID NO: 109
4 | G27A: point mutation of SEQ ID NO:109 (protein, Dicamba decarboxylase variant clone DC.4.032) MAQGKVALEEHFAIPETLQDSAGFVPADYWKELQHRLLDIQDTRLKLMDAHGIETMILSLNAPAVQAIPDRRKAIEIARRANDVLAEECAKRPDRFLAFAALPLQDPDAATEELQRCVNDLGFVGALVNGFSQEGDGQTPLYYDLPQYRPFWGEVEKLDVPFYLHPRNPLPQDSRIYDGHPWLLGPTWAFAQETAVHALRLMASGLFDEHPRLNIILGHMGEGLPYMMWRIDHRVAWVKLPPRYPAKRRFMDYFNENFHITTSGNFRTQTLIDAILEIGADRILFSTDWPFENIDHASDWFNATSIAEADRVKIGRTNARRLFKLDGA | – | – | – | – | – | 2.0 Fold of SEQ ID NO: 109 | –
5 | 111 (protein, Dicamba decarboxylase variant clone DC.4.112) MAQGKVALEEHFAIPETLQDSMGFVPGDYWKELMHRLLDIQDTRLKLMDAHGIETMILSLNAPAVQAIPDRRKAIEIARRANDVLAEECAKRPDRFLAFAALPLQDPDAATEELQRCVNDLGFVGALVNGFSQEGDGQTPLYYDLPQYRPFWGEVEKLDVPFYLHPRNPLPQDSRIYDGHPWLLGPTWAFAQETAVHALRLMASGLFDEHPRLNIILGHMGEGLPYMMWRIDHRMAWIKLPPRYPAKRRFMDYFNENFHITTSGNFRTQTLIDAILEIGADRILFSTDWPFENIDHASDWFNATSIAEADRVKIGRTNARRLFKLDGA | detected | detected | High | detected | displays an increase in dicamba decarboxylase activity | – | –
6 | G27S: point mutation of SEQ ID NO:109 (protein, Dicamba decarboxylase variant clone DC.4.032) MAQGKVALEEHFAIPETLQDSAGFVPSDYWKELQHRLLDIQDTRLKLMDAHGIETMILSLNAPAVQAIPDRRKAIEIARRANDVLAEECAKRPDRFLAFAALPLQDPDAATEELQRCVNDLGFVGALVNGFSQEGDGQTPLYYDLPQYRPFWGEVEKLDVPFYLHPRNPLPQDSRIYDGHPWLLGPTWAFAQETAVHALRLMASGLFDEHPRLNIILGHMGEGLPYMMWRIDHRVAWVKLPPRYPAKRRFMDYFNENFHITTSGNFRTQTLIDAILEIGADRILFSTDWPFENIDHASDWFNATSIAEADRVKIGRTNARRLFKLDGA | – | – | – | – | – | 2.2 Fold of SEQ ID NO: 109 | 2.2 Fold of SEQ ID NO: 109
7 | 113 (protein, Dicamba decarboxylase variant clone DC.4.114) MAQGKVALEEHFAIPETLQDSAGFVPGDYLKELFHRLLDIQDTRLKLMDAHGIETMILSLNAPAVQAIPDRRKAIEIARRANDVLAEECAKRPDRFLAFAALPLQDPDAATEELQRCVNDLGFVGALVNGFSQEGDGQTPLYYDLPQYRPFWGEVEKLDVPFYLHPRNPLPQDSRIYDGHPWLLGPTWAFAQETAVHALRLMASGLFDEHPRLNIILGHMGEGLPYMMWRIDHRVAWVKLPPRYPAKRRFMDYFNENFHITTSGNFRTQTLIDAILEIGADRILFSTDWPFENIDHASDWFNATSIAEADRVKIGRTNARRLFKLDGA | detected | detected | High | detected | displays an increase in dicamba decarboxylase activity | – | –
8 | A328R: point mutation of SEQ ID NO:109 (protein, Dicamba decarboxylase variant clone DC.4.032) MAQGKVALEEHFAIPETLQDSAGFVPGDYWKELQHRLLDIQDTRLKLMDAHGIETMILSLNAPAVQAIPDRRKAIEIARRANDVLAEECAKRPDRFLAFAALPLQDPDAATEELQRCVNDLGFVGALVNGFSQEGDGQTPLYYDLPQYRPFWGEVEKLDVPFYLHPRNPLPQDSRIYDGHPWLLGPTWAFAQETAVHALRLMASGLFDEHPRLNIILGHMGEGLPYMMWRIDHRVAWVKLPPRYPAKRRFMDYFNENFHITTSGNFRTQTLIDAILEIGADRILFSTDWPFENIDHASDWFNATSIAEADRVKIGRTNARRLFKLDGR | – | – | – | – | – | 3.0 Fold of SEQ ID NO: 109 | –
9 | 112 (protein, Dicamba decarboxylase variant clone DC.4.113) MAQGKVALEEHFAIPETLQDSAGFVPGDYWKELVHRLLDIQDTRLKLMDAHGIETMILSLNAPAVQAIPDRRKAIEIARRANDVLAEECAKRPDRFLAFAALPLQDPDAATEELQRCVNDLGFVGALVNGFSQEGDGQTPLYYDLPQYRPFWGEVEKLDVPFYLHPRNPLPQDSRIYDGHPWLLGPTWAFAQETAVHALRLMASGLFDEHPRLNIILGHMGEGLPYMMWRIDHRVAWVKLPPRYPAKRRFMDYFNENFHITTSGNFRTQTLIDAILEIGADRILFSTDWPFENIDHASDWFNATSIAEADRVKIGRTNARRLFKLDGA | detected | detected | High | detected | displays an increase in dicamba decarboxylase activity | – | –
